The record followed here is patent US20070093443.

The target in one series is T1, Complement C4 (human).
T1 chain 1: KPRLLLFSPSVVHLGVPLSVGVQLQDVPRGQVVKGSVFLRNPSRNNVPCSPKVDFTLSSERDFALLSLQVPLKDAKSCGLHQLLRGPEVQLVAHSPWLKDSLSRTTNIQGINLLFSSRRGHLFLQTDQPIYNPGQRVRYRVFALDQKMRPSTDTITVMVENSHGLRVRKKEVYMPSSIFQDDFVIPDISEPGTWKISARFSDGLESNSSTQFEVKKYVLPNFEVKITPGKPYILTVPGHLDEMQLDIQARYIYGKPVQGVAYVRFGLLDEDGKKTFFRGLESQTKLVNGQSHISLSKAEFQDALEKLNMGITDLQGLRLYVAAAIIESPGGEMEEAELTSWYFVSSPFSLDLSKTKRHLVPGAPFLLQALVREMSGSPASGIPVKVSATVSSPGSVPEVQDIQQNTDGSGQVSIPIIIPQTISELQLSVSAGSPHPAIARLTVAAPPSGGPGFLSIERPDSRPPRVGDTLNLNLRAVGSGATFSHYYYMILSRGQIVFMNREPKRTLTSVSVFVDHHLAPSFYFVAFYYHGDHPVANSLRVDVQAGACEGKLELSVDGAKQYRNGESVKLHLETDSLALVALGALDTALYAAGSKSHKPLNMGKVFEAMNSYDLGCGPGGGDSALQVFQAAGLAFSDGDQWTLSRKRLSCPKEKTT
T1 chain 2: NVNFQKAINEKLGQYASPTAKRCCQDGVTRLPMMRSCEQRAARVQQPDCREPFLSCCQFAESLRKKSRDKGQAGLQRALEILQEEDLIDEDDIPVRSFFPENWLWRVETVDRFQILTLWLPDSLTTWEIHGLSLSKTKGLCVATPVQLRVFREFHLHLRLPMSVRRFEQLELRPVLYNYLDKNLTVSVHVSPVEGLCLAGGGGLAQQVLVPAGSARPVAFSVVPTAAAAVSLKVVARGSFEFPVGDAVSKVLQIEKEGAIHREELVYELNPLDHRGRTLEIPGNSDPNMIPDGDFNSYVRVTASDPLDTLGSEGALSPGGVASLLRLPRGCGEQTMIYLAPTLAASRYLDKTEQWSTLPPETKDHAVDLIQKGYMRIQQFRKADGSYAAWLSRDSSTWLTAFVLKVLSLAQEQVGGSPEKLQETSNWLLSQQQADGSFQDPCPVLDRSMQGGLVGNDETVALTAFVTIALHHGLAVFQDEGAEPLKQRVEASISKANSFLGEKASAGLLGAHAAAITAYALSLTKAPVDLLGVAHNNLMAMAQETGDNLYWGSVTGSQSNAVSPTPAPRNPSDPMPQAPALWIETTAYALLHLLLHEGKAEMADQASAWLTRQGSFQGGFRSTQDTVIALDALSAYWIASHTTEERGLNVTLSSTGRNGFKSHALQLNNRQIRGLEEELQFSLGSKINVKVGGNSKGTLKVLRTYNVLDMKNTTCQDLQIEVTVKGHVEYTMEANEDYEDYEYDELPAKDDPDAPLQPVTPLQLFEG
T1 chain 3: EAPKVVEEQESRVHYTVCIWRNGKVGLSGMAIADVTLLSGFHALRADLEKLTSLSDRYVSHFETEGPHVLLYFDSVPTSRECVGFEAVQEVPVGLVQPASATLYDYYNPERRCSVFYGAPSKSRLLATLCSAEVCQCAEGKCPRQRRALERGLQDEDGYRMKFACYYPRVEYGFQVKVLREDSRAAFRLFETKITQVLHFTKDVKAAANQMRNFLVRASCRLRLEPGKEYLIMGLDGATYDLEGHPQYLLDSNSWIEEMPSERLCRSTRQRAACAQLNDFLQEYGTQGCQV

The target of series [1] is Complement component C8 (human).
Complement component C8 (human), sequence (chain, as listed by the source, chain 1 of 3): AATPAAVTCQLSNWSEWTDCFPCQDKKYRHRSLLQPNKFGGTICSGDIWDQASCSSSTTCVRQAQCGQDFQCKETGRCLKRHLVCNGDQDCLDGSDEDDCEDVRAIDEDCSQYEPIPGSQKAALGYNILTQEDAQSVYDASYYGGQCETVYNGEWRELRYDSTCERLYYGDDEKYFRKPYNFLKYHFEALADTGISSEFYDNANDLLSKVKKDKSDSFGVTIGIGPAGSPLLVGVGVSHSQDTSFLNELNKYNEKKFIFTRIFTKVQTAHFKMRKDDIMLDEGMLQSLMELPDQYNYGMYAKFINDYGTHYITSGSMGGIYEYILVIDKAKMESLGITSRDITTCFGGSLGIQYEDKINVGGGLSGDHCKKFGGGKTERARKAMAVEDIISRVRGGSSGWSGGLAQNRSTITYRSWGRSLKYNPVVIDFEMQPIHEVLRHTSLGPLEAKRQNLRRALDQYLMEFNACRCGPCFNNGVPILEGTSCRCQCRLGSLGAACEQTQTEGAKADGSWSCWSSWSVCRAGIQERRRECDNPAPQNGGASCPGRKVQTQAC
Complement component C8 (human), sequence (chain, as listed by the source, chain 2 of 3): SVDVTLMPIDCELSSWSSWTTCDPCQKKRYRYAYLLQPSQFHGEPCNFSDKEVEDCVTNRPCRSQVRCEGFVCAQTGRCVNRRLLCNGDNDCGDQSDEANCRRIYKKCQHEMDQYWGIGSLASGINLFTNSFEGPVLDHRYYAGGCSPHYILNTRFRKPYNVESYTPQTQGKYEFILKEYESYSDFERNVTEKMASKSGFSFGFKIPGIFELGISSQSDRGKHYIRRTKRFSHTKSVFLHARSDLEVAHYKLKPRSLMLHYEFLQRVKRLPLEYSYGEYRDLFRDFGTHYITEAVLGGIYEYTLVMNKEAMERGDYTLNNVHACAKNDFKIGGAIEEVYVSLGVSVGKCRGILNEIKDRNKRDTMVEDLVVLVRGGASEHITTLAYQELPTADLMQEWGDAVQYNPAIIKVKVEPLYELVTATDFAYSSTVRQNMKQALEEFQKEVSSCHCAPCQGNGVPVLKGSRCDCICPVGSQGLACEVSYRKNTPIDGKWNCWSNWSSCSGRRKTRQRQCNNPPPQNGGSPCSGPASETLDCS
Complement component C8 (human), sequence (chain, as listed by the source, chain 3 of 3): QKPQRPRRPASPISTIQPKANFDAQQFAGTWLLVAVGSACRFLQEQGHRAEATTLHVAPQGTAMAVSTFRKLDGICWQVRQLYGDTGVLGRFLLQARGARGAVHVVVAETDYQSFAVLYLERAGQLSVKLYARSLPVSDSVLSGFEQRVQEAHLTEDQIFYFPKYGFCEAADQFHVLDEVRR
The target in series [2] is T2, cynomolgus monkey complement C2 (in plasma of treated monkeys), G8F3W0.
T2 chain: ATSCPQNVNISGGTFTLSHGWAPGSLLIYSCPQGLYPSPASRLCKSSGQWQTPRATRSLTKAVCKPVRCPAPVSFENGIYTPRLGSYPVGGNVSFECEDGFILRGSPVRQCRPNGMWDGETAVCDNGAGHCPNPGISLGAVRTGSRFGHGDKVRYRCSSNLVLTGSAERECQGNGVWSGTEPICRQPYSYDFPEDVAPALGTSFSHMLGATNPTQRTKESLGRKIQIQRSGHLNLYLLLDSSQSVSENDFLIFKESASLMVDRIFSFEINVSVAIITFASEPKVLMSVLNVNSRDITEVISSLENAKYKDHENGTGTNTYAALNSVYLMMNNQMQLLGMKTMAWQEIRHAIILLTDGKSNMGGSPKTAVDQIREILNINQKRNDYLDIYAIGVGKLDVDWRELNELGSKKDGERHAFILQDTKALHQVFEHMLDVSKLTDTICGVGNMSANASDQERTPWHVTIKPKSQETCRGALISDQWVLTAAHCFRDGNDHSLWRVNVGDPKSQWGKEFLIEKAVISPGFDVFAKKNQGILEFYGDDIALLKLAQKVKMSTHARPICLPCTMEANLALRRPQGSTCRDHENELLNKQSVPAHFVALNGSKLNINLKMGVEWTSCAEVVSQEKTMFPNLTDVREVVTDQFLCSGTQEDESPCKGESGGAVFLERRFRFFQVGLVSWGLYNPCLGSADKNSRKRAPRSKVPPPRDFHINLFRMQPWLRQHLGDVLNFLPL

Series [3] has as its target Complement component C6 (human).

Changes are numbered by the printed parent chain. Names may count otherwise.

Complement component C6 (human), sequence (chain, as listed by the source): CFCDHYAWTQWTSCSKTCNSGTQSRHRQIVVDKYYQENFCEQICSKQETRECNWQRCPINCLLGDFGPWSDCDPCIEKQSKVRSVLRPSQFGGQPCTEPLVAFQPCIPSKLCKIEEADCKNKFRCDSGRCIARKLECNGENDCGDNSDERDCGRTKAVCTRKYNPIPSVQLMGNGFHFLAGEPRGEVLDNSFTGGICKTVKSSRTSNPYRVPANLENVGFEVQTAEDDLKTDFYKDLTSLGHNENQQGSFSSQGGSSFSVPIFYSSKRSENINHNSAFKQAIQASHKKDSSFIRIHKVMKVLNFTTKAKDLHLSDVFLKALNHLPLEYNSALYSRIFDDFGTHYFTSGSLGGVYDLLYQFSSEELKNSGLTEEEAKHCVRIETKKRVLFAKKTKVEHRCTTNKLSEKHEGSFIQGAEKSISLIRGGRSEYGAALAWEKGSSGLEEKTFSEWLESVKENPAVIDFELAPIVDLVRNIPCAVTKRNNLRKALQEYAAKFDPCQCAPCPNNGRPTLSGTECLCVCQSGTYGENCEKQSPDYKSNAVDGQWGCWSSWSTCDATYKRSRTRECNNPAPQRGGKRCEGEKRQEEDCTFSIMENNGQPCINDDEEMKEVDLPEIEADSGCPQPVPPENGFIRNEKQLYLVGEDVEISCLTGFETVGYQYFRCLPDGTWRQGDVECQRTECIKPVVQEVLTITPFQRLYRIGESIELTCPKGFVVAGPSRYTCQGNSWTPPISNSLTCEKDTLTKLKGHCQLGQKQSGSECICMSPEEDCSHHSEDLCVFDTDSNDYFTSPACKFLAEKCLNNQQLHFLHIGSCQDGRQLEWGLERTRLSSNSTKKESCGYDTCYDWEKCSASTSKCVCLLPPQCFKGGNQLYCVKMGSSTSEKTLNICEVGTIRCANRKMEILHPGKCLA

B1: modified MT-SP1 CB252 (Y146E/K224N) protease domain (protein)
chain: VVGGTDADEGEWPWQVSLHALGQGHICGASLISPNWLVSAAHCYIDDRGFRYSDPTQWTAFLGLHDQSQRSAPGVQERRLKRIISHPFFNDFTFDYDIALLELEKPAEYSSMVRPICLPDASHVFPAGKAIWVTGWGHTQEGGTGALILQKGEIRVINQTTCENLLPQQITPRMMCVGFLSGGVDSCQGDSGGPLSSVEADGRIFQAGVVSWGDGCAQRNNPGVYTRLPLFRDWIKENTGV
For B1, the “hemolysis (OD415) by protease-preincubated purified complement protein added back to the corresponding depleted sera” value (“hemolysis (OD415)” for short) in the series with Complement C1q (human) is reported as “showed no decreased hemolysis as compared to normal sera or the no protease control”. For the same protein, the “hemolysis (OD415)” value with Complement C4 (human) was “showed no decreased hemolysis as compared to normal sera or the no protease control”. The “hemolysis (OD415)” value in series [1] was “showed no decreased hemolysis as compared to normal sera or the no protease control”. Moreover, in series [2], the “C2 Western blot of plasma from monkeys dosed IV with 1 or 3 mg/kg protease” value is “increased cleavage of C2 in plasma from CB252 and CB377 treated monkeys after treatment with 3 mg/kg protease but not after treatment with 1 mg/kg protease ... a greater cleavage of C2 occurred in plasma collected form CB252 treated monkeys as compared to CB377 treated monkeys at all time points tes”; the “C2 Western blot of plasma from monkeys dosed with 1 mg/kg CB252 IV” value is listed as “Plasma from monkeys treated with 1 mg/kg CB252 had no discernable C2 cleavage”; the “average extent of degradation of C2 (densitometry of C2 Western blots), 5 minutes after 3 mg/kg CB252 IV” value turned out to be 60% degraded at 5 minutes; the “average extent of degradation of C2 (densitometry of C2 Western blots), 30 minutes after 3 mg/kg CB252 IV” value came out at 50% degraded at 30 minutes. In addition, in series [2], the “average extent of degradation of C2 (densitometry of C2 Western blots), 60 minutes after 3 mg/kg CB252 IV” value turned out to be 40% degraded at 60 minutes; the “percent C2 cleavage (Western blot densitometry), plasma of animal 2, 5 minutes after 3 mg/kg CB252 IV” value is recorded as 62%; the “percent C2 cleavage (Western blot densitometry), plasma of animal 2, 30 minutes after 3 mg/kg CB252 IV” value is reported as 55%; the “percent C2 cleavage (Western blot densitometry), plasma of animal 2, 60 minutes after 3 mg/kg CB252 IV” value is 50%. In series [2], the “percent C2 cleavage (Western blot densitometry), plasma of animal 4, 5 minutes after 3 mg/kg CB252 IV” value came out at 55%; the “percent C2 cleavage (Western blot densitometry), plasma of animal 4, 30 minutes after 3 mg/kg CB252 IV” value worked out at 45%; the “percent C2 cleavage (Western blot densitometry), plasma of animal 4, 60 minutes after 3 mg/kg CB252 IV” value is given as 37%; the “percent C2 cleavage (Western blot densitometry), plasma of animal 5, 5 minutes after 3 mg/kg CB252 IV” value is given as 65%. Moreover, in series [2], the “percent C2 cleavage (Western blot densitometry), plasma of animal 5, 30 minutes after 3 mg/kg CB252 IV” value stood at 50% and the “percent C2 cleavage (Western blot densitometry), plasma of animal 5, 60 minutes after 3 mg/kg CB252 IV” value is reported as 38%. Moreover, in series [3], the “hemolysis (OD415)” value is “showed no decreased hemolysis as compared to normal sera or the no protease control”.

B2: modified MT-SP1 CB377 (Y146E/Q175D/K224N) protease domain (protein)
chain: B1 chain with Q169D
On to B2, for which the “hemolysis (OD415)” value (with Complement C1q (human); with Complement C4 (human); in series [1]; in series [3]) was “showed no decreased hemolysis as compared to normal sera or the no protease control” in each case. Besides, the “C2 Western blot of plasma from monkeys dosed IV with 1 or 3 mg/kg protease” value in series [2] is “increased cleavage of C2 in plasma from CB252 and CB377 treated monkeys after treatment with 3 mg/kg protease but not after treatment with 1 mg/kg protease”.
